Measurements reported in the Human Domainome abundance scans (Beltran et al. 2025).
± gives the uncertainty stated by the source.

B1: Cytoplasmic polyadenylation element-binding protein 2, residues 513 to 575; numbered along this chain, Q7Z5Q1 (parent)
chain: KRVEVKPYVLDDQMCDECQGARCGGKFAPFFCANVTCLQYYCEFCWANIHSRAGREFHKPLVK

Variants of: B1
Test: abundance fitness (aPCA) (normalised: wild type 0, dead -1); higher = more abundant; growth selection in yeast, the domain comes from the species named
Conditions: Homo sapiens
KRVEVKPYVLDDQMCDECQGWRCGGKFAPFFCANVTCLQYYCEFCWANIHSRAGREFHKPLVK [A21W] gave an abundance fitness of -0.41 ± 0.069. In the case of KRVEVKPYVLDDQMCDECQGDRCGGKFAPFFCANVTCLQYYCEFCWANIHSRAGREFHKPLVK [A21D], the abundance fitness is reported as -0.159 ± 0.068. For KRVEVKPYVLDDQMCDECQGPRCGGKFAPFFCANVTCLQYYCEFCWANIHSRAGREFHKPLVK [A21P], the abundance fitness was -0.52 ± 0.079. In the case of KRVEVKPYVLDDQMCDECQGARCGGKFAPFFCANVTCLQYYCEFCPANIHSRAGREFHKPLVK [W46P], the abundance fitness is reported as -0.624 ± 0.09. Variant KRVEVKPYVLDDQMCDECQGARCGGKFAPLFCANVTCLQYYCEFCWANIHSRAGREFHKPLVK [F30L] has an abundance fitness of -0.036 ± 0.044. KRVEVKPYVLDDQMCDECQGARCGGKFAPGFCANVTCLQYYCEFCWANIHSRAGREFHKPLVK [F30G] showed an abundance fitness of -0.582 ± 0.063. With KRVEVKPYVLDDQMCDECQGARCGGKFAPEFCANVTCLQYYCEFCWANIHSRAGREFHKPLVK [F30E] the abundance fitness was -0.415 ± 0.11. In the case of KRVEVKPYVLDDQMCDECQGARCGGKFAPYFCANVTCLQYYCEFCWANIHSRAGREFHKPLVK [F30Y], the abundance fitness is reported as 0.006 ± 0.075. Work on KRVTVKPYVLDDQMCDECQGARCGGKFAPFFCANVTCLQYYCEFCWANIHSRAGREFHKPLVK [E4T] yielded an abundance fitness of -0.111 ± 0.047. With KRVLVKPYVLDDQMCDECQGARCGGKFAPFFCANVTCLQYYCEFCWANIHSRAGREFHKPLVK [E4L] the abundance fitness was -0.322 ± 0.039. With KRVVVKPYVLDDQMCDECQGARCGGKFAPFFCANVTCLQYYCEFCWANIHSRAGREFHKPLVK [E4V] the abundance fitness was -0.223 ± 0.045. With KRVEVKPYVLDDQMCDECQGASCGGKFAPFFCANVTCLQYYCEFCWANIHSRAGREFHKPLVK [R22S] the abundance fitness was -0.04 ± 0.04. In the case of KRVEVKPYVLDDQMCDECQGARCGGKFAPFFCANVTCLQYYCEFCWANIHSRAGREFHVPLVK [K59V], the abundance fitness is reported as -0.2 ± 0.05. For KRVEVKPYVLDDQMCDECQGARCGGKFAPFFCANVTCLQYYCEFCWANIHSRAGREFHDPLVK [K59D], the abundance fitness was -0.132 ± 0.069. For KRVEVKPYVLDDQMCDECQGARCGGKFANFFCANVTCLQYYCEFCWANIHSRAGREFHKPLVK [P29N], the abundance fitness was -0.01 ± 0.062. For KRVEVKPYVLDDQMCDECQGARCGGKFACFFCANVTCLQYYCEFCWANIHSRAGREFHKPLVK [P29C], the abundance fitness was -0.147 ± 0.052. Work on KRVEVKPYVLDDQMCDECQGARCGGKFAVFFCANVTCLQYYCEFCWANIHSRAGREFHKPLVK [P29V] yielded an abundance fitness of -0.199 ± 0.064. With LRVEVKPYVLDDQMCDECQGARCGGKFAPFFCANVTCLQYYCEFCWANIHSRAGREFHKPLVK [K1L] the abundance fitness was -0.417 ± 0.074. Work on KRVEVKPYVLDDQMCDECQGARCGGKFAPFFCANVTCLQYYCEFCWANIHSRAGYEFHKPLVK [R55Y] yielded an abundance fitness of 0.211 ± 0.057. Work on KRVEVKPYVLDDQMCDECQEARCGGKFAPFFCANVTCLQYYCEFCWANIHSRAGREFHKPLVK [G20E] yielded an abundance fitness of -0.462 ± 0.074. Variant KRVEVKPYVLDDQMCDECQLARCGGKFAPFFCANVTCLQYYCEFCWANIHSRAGREFHKPLVK [G20L] has an abundance fitness of -0.944 ± 0.076. KRVEVKPYVLDDQMCDECQGARCGGKFAPFFCANVTCLQYYCEWCWANIHSRAGREFHKPLVK [F44W] showed an abundance fitness of -0.067 ± 0.043. For KRVEVKPYVLDDQMCDECQGARCGGKFSPFFCANVTCLQYYCEFCWANIHSRAGREFHKPLVK [A28S], the abundance fitness was -0.321 ± 0.046. For KRVEVKPYVLDDQMCDECQGARCGGKFWPFFCANVTCLQYYCEFCWANIHSRAGREFHKPLVK [A28W], the abundance fitness was -0.381 ± 0.083. In the case of KRVEVKPYVLDDQMCDECQGARCGGKFVPFFCANVTCLQYYCEFCWANIHSRAGREFHKPLVK [A28V], the abundance fitness is reported as -0.287 ± 0.046. In the case of KRVEVKPYVLDDQMCDECQGARCGGKFLPFFCANVTCLQYYCEFCWANIHSRAGREFHKPLVK [A28L], the abundance fitness is reported as -0.497 ± 0.058. In the case of KRVEVKPYVLDDQMCDECQGARCGGKFAPFFCANVTCLQYYCEFCWANIHSRAGREFHKPLVV [K63V], the abundance fitness is reported as -0.112 ± 0.062. For KRVEVKPYVLDDQMCDECQGARCGGKFAPFFCANVTCLQYSCEFCWANIHSRAGREFHKPLVK [Y41S], the abundance fitness was -0.532 ± 0.064. For KRVEVKLYVLDDQMCDECQGARCGGKFAPFFCANVTCLQYYCEFCWANIHSRAGREFHKPLVK [P7L], the abundance fitness was -0.579 ± 0.058. Variant KRVEVKPYVLDDQMCDECQGARCGGKFAPFFCANVTCLQYYCEFCWCNIHSRAGREFHKPLVK [A47C] has an abundance fitness of -0.318 ± 0.062. Work on KRVEVKPYVLDDQMCDECQGARCGGKFAPFFCANVTCLQYYCEFCWPNIHSRAGREFHKPLVK [A47P] yielded an abundance fitness of -0.175 ± 0.039. Work on KRVEVKPYVLDDQMCDECQGARCGGKFAPFFCANVTCLQYYCEFCWANTHSRAGREFHKPLVK [I49T] yielded an abundance fitness of -0.139 ± 0.047. In the case of KRVEVKPEVLDDQMCDECQGARCGGKFAPFFCANVTCLQYYCEFCWANIHSRAGREFHKPLVK [Y8E], the abundance fitness is reported as 0.18 ± 0.053. KRVEVKPIVLDDQMCDECQGARCGGKFAPFFCANVTCLQYYCEFCWANIHSRAGREFHKPLVK [Y8I] showed an abundance fitness of -0.026 ± 0.07. With KRVEVKPYVLDDQMCDENQGARCGGKFAPFFCANVTCLQYYCEFCWANIHSRAGREFHKPLVK [C18N] the abundance fitness was -0.748 ± 0.15. For KRVEVKPYVLDDQMCDECQGARCGGKFAPFFCAYVTCLQYYCEFCWANIHSRAGREFHKPLVK [N34Y], the abundance fitness was -0.103 ± 0.074. In the case of KRVEVKPYVLDDQMCDECQGARCGGKFAPFFCANNTCLQYYCEFCWANIHSRAGREFHKPLVK [V35N], the abundance fitness is reported as 0.108 ± 0.078. For KRVEVKPYVLDDQMCDECQGARCGGKFAPFFCANCTCLQYYCEFCWANIHSRAGREFHKPLVK [V35C], the abundance fitness was -0.253 ± 0.076. KRVEFKPYVLDDQMCDECQGARCGGKFAPFFCANVTCLQYYCEFCWANIHSRAGREFHKPLVK [V5F] gave an abundance fitness of -0.098 ± 0.081. Work on KRVEEKPYVLDDQMCDECQGARCGGKFAPFFCANVTCLQYYCEFCWANIHSRAGREFHKPLVK [V5E] yielded an abundance fitness of 0.144 ± 0.064. In the case of KRVEVKPYVLDDQMCDECQGARCGGKFAPFFCANVTCLQYYCEFCWANIHSRNGREFHKPLVK [A53N], the abundance fitness is reported as 0.152 ± 0.086. KRVEVKPYVLDDQMCDECQGARCGGKFAPFWCANVTCLQYYCEFCWANIHSRAGREFHKPLVK [F31W] gave an abundance fitness of -0.04 ± 0.036.
